Laboratory results from publication PMC10032657.

Target: anti-CD52 IgG1-RGY (alemtuzumab with E345R, E430G and S440Y)
Experiment: native MS; anti-CD52 IgG1-RGY at a total IgG1 concentration of 2 µM, no peptide; 150 mM ammonium acetate pH 7.5; monomer and hexamer in solution

B1: anti-CD52 IgG1-RGY (alemtuzumab with E345R, E430G and S440Y) (antibody, V domains shown)
VH: QVQLQESGPGLVRPSQTLSLTCTVSGFTFTDFYMNWVRQPPGRGLEWIGFIRDKAKGYTTEYNPSVKGRVTMLVDTSKNQFSLRLSSVTAADTAVYYCAREGHTAAPFDYWGQGSLVTVSS
VL: DIQMTQSPSSLSASVGDRVTITCKASQNIDKYLNWYQQKPGKAPKLLIYNTNNLQTGVPSRFSGSGSGTDFTFTISSLQPEDIATYYCLQHISRPRTFGQGTKVEIK
stoichiometry N: 6
